# Measured values taken from article PMC3779320, “Bub3 reads phosphorylated MELT repeats to promote spindle assembly checkpoint signaling” (eLife, 2013).
# Square brackets hold non-standard residues; d marks the D form. Ends that are not written are not given here. pT = C[C@@H](OP(=O)(O)O)[C@H](N)C(=O)O
# T1: Bub1^289–359–Bub3 (Saccharomyces cerevisiae, UniProt P26449+P41695)
# T1 construct: S. cerevisiae Bub1^289–359 and for full length Bub3; GST (N, cleaved yes); made in house; host or cells: E. coli BL21 DE3 plysS
# T1 sequence (P26449 1-341): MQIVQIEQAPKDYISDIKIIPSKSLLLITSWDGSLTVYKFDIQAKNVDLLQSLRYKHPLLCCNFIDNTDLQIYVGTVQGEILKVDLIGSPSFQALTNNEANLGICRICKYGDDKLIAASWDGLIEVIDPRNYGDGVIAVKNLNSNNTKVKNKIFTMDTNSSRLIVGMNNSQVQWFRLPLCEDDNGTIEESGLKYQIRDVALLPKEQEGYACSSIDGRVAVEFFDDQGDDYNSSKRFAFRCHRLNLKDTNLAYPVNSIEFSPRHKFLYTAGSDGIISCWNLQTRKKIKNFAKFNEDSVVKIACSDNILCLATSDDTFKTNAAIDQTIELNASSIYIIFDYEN
# T1 sequence (P41695 289-359): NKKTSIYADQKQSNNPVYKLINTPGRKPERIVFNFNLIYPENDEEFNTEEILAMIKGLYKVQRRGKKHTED
# T2: Bub1^289–359–R314A–Bub3 complex (S. cerevisiae, UniProt P41695 289-359; P26449 1-341, R314A)
# T2 construct: Bub3, S. cerevisiae, full length; Probably GST-tagged on Bub1 and cleaved as the wild type; also called Bub3-Bub1^R314A mutant; Bub3–Bub1^R314A
# T2 sequence (looked up) 1: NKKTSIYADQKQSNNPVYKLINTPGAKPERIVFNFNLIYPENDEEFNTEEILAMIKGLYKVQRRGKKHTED
# T2 sequence (looked up) 2: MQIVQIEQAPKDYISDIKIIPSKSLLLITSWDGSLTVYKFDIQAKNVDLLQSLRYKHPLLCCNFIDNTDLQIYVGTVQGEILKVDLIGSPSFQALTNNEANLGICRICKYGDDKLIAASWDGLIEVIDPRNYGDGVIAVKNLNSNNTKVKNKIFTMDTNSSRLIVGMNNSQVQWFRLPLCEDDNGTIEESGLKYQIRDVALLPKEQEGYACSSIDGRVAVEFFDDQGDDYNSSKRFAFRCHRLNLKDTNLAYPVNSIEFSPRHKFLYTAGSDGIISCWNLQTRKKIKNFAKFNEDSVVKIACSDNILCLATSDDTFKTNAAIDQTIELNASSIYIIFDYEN
# T3: Bub1^289–359–R314A–Bub3 complex (S. cerevisiae, UniProt P41695 289-359; P26449 1-341, R314A)
# T3 sequence 1: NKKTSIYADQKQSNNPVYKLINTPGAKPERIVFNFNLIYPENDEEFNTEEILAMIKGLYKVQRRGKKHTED
# T3 sequence 2: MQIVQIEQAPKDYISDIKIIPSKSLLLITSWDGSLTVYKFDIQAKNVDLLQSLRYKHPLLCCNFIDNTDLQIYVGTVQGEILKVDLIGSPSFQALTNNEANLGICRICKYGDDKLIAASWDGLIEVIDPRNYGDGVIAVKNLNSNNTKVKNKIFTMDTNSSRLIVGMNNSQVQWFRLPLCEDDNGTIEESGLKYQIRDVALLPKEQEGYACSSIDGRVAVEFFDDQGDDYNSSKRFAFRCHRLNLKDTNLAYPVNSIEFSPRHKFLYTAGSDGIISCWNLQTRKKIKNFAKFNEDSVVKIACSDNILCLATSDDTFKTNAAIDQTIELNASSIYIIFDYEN
# T4: Bub1^289–359–Bub3^R239A complex (S. cerevisiae, UniProt P41695 289-359; P26449 1-341, R239A)
# T4 construct: Bub3, S. cerevisiae, full length, with R239A; also called R239A mutant; source: expressed and purified essentially like the wild type complex (E. coli, GSH-sepharose, PreScission cleavage, SEC)
# T4 sequence (looked up) 1: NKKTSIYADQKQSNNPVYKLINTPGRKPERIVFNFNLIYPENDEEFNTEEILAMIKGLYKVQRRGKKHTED
# T4 sequence (looked up) 2: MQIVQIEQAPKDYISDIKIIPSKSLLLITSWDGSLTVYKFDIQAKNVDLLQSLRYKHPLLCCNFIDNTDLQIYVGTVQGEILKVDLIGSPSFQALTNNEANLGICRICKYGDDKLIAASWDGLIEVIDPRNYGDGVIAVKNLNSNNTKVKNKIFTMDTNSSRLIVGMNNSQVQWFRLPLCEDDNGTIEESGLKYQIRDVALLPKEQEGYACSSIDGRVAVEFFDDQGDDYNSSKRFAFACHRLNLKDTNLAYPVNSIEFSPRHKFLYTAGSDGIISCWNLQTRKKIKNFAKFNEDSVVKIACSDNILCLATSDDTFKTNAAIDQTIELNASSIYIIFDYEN
# T5: Bub1^289–359–Bub3^R217A complex (S. cerevisiae, UniProt P41695 289-359; P26449 1-341, R217A)
# T5 construct: Bub3, S. cerevisiae, full length, with R217A; also called R217A mutant; source: expressed and purified essentially like the wild type complex (E. coli, GSH-sepharose, PreScission cleavage, SEC)
# T5 sequence (looked up) 1: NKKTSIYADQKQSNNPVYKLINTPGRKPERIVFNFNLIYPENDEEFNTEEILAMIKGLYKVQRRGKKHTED
# T5 sequence (looked up) 2: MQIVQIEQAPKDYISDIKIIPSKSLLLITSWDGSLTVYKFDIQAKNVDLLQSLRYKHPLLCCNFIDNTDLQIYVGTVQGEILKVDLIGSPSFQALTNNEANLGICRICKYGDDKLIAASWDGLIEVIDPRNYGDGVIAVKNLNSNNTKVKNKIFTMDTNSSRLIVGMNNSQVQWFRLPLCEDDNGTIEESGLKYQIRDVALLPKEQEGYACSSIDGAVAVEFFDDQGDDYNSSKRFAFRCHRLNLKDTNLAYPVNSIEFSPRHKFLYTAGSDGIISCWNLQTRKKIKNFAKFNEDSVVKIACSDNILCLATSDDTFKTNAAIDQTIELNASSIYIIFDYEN
# T6: Bub3 (S. cerevisiae) (S. cerevisiae, UniProt P26449 1-341)
# T6 construct: Bub3, S. cerevisiae, full length (7-bladed WD40 beta-propeller); The methods tell the construct only for Bub3 co-expressed with Bub1; also called ScBub3; purified Bub3; source: Bub3 alone: purified, expression not described
# T6 sequence (looked up): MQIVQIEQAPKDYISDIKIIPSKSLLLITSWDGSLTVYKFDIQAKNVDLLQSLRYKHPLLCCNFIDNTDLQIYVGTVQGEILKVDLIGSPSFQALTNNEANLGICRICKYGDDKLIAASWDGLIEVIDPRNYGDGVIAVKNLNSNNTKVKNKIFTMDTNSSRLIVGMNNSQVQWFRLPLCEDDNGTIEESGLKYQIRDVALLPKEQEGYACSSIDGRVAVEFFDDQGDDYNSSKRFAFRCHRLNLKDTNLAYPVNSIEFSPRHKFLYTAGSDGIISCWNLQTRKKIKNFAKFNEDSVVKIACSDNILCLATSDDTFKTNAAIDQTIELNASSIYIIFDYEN
# Assays:
# [1] = target: T7, Bub1^289–359–R314A–Bub3 (Saccharomyces cerevisiae, UniProt P26449+P41695, R314A); format: binding; conditions: ITC; Bub3-Bub1^R314A mutant compared to wild type Bub3–Bub1; MELT4^P: data not shown
# T7 construct: S. cerevisiae Bub1^289–359 and for full length Bub3; ITC experiment with the MELT2^P peptide and the Bub1^289–359–R314A–Bub3 complex; GST (N, cleaved yes); made in house; host or cells: E. coli BL21 DE3 plysS
# From the text: Such function of Bub1 is probably exerted primarily through its structuring effects on the 4-stranded β-sheet ‘roof’ that dominates the peptide-binding region of Bub3 and which restrains the position of the positively charged residues in the ‘north’ area of the MELT^P-binding site (Figure 4E). Additionally, we observe that Arg314^Bub1, in the β1-β2 loop, contributes to the interaction with the phosphate group of P-Thr172^Spc105/Knl1 (the interaction, however, is only observed in one of the two complexes in the asymmetric unit, and in proximity of a crystal contact) and is therefore directly engaged in the interaction with the MELT2^P peptide. In ITC measurements, we observed a ∼fourfold reduction in the binding affinity of the Bub3-Bub1^R314A mutant for the MELT2^P peptide, in agreement with a role of Arg314^Bub1 is in the interaction of the Bub1-Bub3 complex with MELT2^P (Figure 4F). Similarly, Bub3–Bub1^R314A bound the MELT4^P with ∼threefold decreased affinity compared to wild type Bub3–Bub1 (data not shown).
# Binding isotherm was measured at 25°C by isothermal titration calorimetry on a MicroCal ITC200 device (GE Healthcare, Piscataway, NJ). All samples were extensively dialysed into fresh GF buffer (20 mM Tris pH7.5, 150 mM NaCl, 1 mM DTE). […]
# [2] = target: T1, Bub1^289–359–Bub3; test: ITC binding of MELT peptides to Bub1^289–359–Bub3 (wild type); conditions: 25°C, 20 mM Tris pH7.5, 150 mM NaCl, 1 mM DTE, complex 30 µM in cell, peptide 400 µM
# From the text: We generated recombinant ScBub1^289–359–Bub3 (where the Bub1 segment is equivalent to the minimal kinetochore targeting region of human Bub1 [[Krenn et al., 2012]]) by bacterial co-expression and purified it to homogeneity (Figure 1D). To assess whether Bub1–Bub3 binds directly to MELT^P sequences, we tested its ability to bind MELT sequences in quantitative isothermal titration calorimetry (ITC) binding experiments. 19-residue synthetic peptides encompassing the sequences of the second and fourth MELT^P motifs of Spc105/Knl1 (indicated as MELT2 and MELT4, respectively), each flanked by four and eleven residues on the N- and C-terminal ends, respectively, were tested (Figure 1C). […] Thus, ScBub1^289–359–Bub3 is sufficient for the reconstitution of tight interactions with two MELT^P peptides in vitro that recapitulate a salient feature of this interaction, its dependency on phosphorylation.
# cDNA sequences coding for S. cerevisiae Bub1^289–359 and for full length Bub3 were subcloned in the first and second cassettes of pGEX-6P-2rbs vector ([Ciferri et al., 2005]). In this construct, the cDNA encoding Bub1^289–359 was sub-cloned in frame with the gene encoding GST and a cleavage site for PreScission protease, and was translated from the first ribosome-binding site (rbs). Untagged Bub3 was subcloned downstream of the second rbs in the same vector. Expression was carried out in BL21 DE3 plysS cells in LB medium by auto-induction with 0.3% lactose at 18°C for approximately 16 hr. Cells were harvested by centrifugation and resuspended in Buffer A (20 mM Tris pH 7.5, 300 mM NaCl, 10% Glycerol, 1 mM DTE, 1 mM EDTA pH 8.0, 1 mM PMSF) typically at a dilution of 3 ml lysis buffer per ml of bacterial pellet. Cells were lysed by sonication, and the lysates were cleared by centrifugation at 75000 × g for 45 min. The resulting clear supernatant was incubated with gentle rotation with 1/50 (vol/vol) of GSH-sepharose slurry (GE Healthcare) for 1–2 hr at 4°C. Beads were washed with 150 vol of Buffer A. To elute the Bub1–Bub3 complex from beads, GST-PreScission protease (0.02 mg/mg of protein target) was added for 16 hr at 4°C. The eluate was concentrated on Amicon Ultra Centrifugal Filters MwCO 3000 (Merck Millipore, Billerica, MA) and further purified by size exclusion chromatography (SEC) on a Superdex 75 16/60 column using GF buffer (20 mM Tris pH 7.5, 150 mM NaCl, 1 mM DTE). The complex eluted in a single peak with apparently stoichiometric amounts of Bub1^289–359 and Bub3 and was subsequently concentrated to ∼10 mg/ml for crystallization or to 2–4 mg/ml for ITC experiments. […]
# Binding isotherm was measured at 25°C by isothermal titration calorimetry on a MicroCal ITC200 device (GE Healthcare, Piscataway, NJ). […]
# [3] = target: ScBub1^289–359–Bub3 complex (S. cerevisiae) (UniProt P41695); test: ITC; 25°C, MicroCal ITC200; 20 mM Tris pH7.5, 150 mM NaCl, 1 mM DTE; Bub1^289–359–Bub3 in the cell at 30 µM, titrated with thirty-five 2-µl injections of peptide at 400 µM; single-site binding model
# [4] = target: T2, Bub1^289–359–R314A–Bub3 complex; test: ITC; data not shown; method taken from the sentence before it (ITC measurements); conditions: both partners purified
# [5] = target: T3, Bub1^289–359–R314A–Bub3 complex; test: ITC
# [6] = target: T4, Bub1^289–359–Bub3^R239A complex; test: ITC; 25°C, MicroCal ITC200; 20 mM Tris pH7.5, 150 mM NaCl, 1 mM DTE; Bub1^289–359–Bub3 in the cell at 30 µM, titrated with thirty-five 2-µl injections of peptide at 400 µM; single-site binding model; conditions: both partners purified
# [7] = target: T5, Bub1^289–359–Bub3^R217A complex; test: as above; conditions: both partners purified
# [8] = target: T6, Bub3 (S. cerevisiae); test: as above; conditions: both partners purified
# [9] = target: T2, Bub1^289–359–R314A–Bub3 complex; test: as above; conditions: both partners purified
molecule,measurement,setting,value
DTVEGEPIDL{PTHR}EYESKPYVPN [MELT4^P],fold reduction in binding affinity,[1],threefold
same,binding (in words),[2],no binding
"GGGPA{pTHR}PKKAKKL [H1^P, Histone H1-derived phosphorylated peptide GGGPA{pTHR}PKKAKKL, AnaSpec catalog number 61741, reference compound]",binding (in words),[2],No binding
same,binding (in words),[2]; listed as unrelated phospho-peptide,did not show any binding affinity
MELT2^P peptide (phosphorylated second MELT repeat of Spc105/Knl1),Kd,[3],200 nM
MELT4^P peptide (phosphorylated fourth MELT repeat of Spc105/Knl1),Kd,[3],1300 nM
"DTVEGEPIDL[pT]EYESKPYVPN (Spc105/Knl1, S. cerevisiae, fourth MELT repeat; also called fourth MELT^P peptide; source: synthetic peptide, custom made by GeneScript (95% purity)) [MELT4^P peptide (phosphorylated fourth MELT repeat of Spc105/Knl1)]",fold decrease in affinity against wild type Bub3–Bub1,[4],~3 fold
DPTSMEM[pT]EVFPRSIRQKN (not fully specified),Kd,[5],790 nM
"DPTSMEM[pT]EVFPRSIRQKN (Spc105/Knl1, S. cerevisiae, second MELT repeat with four residues before and eleven after; Met169, Glu170, Met171, P-Thr172, Phe175 are the printed numbers; The end groups are told only for the peptide used for crystallisation; also called MELT^P peptide; Spc105/Knl1 phosphopeptide; source: synthetic peptide, custom made by GeneScript (95% purity))",Kd,[6],5 µM
same,Kd,[7],2700 nM
same,Kd,[8],2000 nM
same,fold reduction in binding affinity against wild type Bub1^289–359–Bub3,[9],~4 fold
